Measurements from patent USRE50631 (VELOSBIO, dated 2025).

Tests used:
[1] = target: T1, human receptor tyrosine kinase like orphan receptor 1 (ROR1) (human, UniProt Q01973 30-937); experiment: binding to Jeko cells; column 'ADC-N Binding KD (nM)', method not described
T1 construct: whole, on cells; Target in all assays is endogenous ROR1 on human tumor cell lines; the cell line is named under assay; also called cell surface ROR1

[2] = target: T1, human receptor tyrosine kinase like …; experiment: cell-based or functional assay
[3] = target: T1, human receptor tyrosine kinase like …; experiment: binding to Jeko cells; column 'ADC-M Binding KD (nM)', method not described
[4] = target: T1, human receptor tyrosine kinase like …; experiment: binding to Jeko cells; column 'ADC-L Binding KD (nM)', method not described
[5] = target: T1, human receptor tyrosine kinase like …; experiment: flow cytometry on Jeko-1 cells (FIG. 3B)

T1 sequence (Q01973 30-937): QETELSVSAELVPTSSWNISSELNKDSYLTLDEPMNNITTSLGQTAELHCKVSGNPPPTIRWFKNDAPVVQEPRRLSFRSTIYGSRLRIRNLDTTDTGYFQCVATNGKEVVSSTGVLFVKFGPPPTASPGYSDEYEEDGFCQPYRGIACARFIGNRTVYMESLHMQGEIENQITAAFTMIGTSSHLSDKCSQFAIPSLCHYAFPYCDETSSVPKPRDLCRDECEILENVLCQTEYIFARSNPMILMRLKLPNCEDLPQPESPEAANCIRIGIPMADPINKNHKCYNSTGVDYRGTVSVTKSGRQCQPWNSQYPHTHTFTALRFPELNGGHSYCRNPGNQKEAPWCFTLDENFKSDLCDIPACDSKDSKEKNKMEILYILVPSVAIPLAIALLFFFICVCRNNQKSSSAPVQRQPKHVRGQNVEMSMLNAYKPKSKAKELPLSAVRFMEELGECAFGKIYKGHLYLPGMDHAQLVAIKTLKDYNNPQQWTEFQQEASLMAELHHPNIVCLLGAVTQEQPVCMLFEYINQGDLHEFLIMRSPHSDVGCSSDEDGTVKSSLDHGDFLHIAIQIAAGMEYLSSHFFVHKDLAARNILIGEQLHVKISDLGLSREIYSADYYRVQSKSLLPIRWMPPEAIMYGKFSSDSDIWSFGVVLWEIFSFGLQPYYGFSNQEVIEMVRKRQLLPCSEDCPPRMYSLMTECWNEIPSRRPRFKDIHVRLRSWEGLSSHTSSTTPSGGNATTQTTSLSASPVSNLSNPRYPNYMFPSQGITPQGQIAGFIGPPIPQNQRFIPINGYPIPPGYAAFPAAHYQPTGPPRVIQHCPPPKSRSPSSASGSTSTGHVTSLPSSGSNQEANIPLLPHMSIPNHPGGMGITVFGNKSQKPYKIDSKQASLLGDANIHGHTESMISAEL

B1: ADC-N (antibody, human IgG1, kappa, V domains shown)
VH: QVQLQESGPGLVKPSQTLSLTCTVSGYAFTAYNIHWVRQAPGQGLEWMGSFDPYDGGSSYNQKFKDRLTISKDTSKNQVVLTMTNMDPVDTATYYCARGWYYFDYWGHGTLVTVSS
VL: DIVMTQTPLSLPVTPGEPASISCRASKSISKYLAWYQQKPGQAPRLLIYSGSTLQSGIPPRFSGSGYGTDFTLTINNIESEDAAYYFCQQHDESPYTFGEGTKVEIKR
modifications: MAL-PEG4-VC-PAB-DMEA-PNU-159682 bonded via cysteine residues of the antibody (chain and positions not stated)
notes: Antibody-drug conjugate of Ab1; also called Ab1-MAL-PEG4-VC-PAB-DMEA-PNU-159682
Kd [1]: 0.13 nM

B2: ADC-B (antibody, human IgG1, kappa, V domains shown)
VH: QVQLQESGPGLVKPSQTLSLTCTVSGYAFTAYNIHWVRQAPGQGLEWMGSFDPYDGGSSYNQKFKDRLTISKDTSKNQVVLTMTNMDPVDTATYYCARGWYYFDYWGHGTLVTVSS
VL: DIVMTQTPLSLPVTPGEPASISCRASKSISKYLAWYQQKPGQAPRLLIYSGSTLQSGIPPRFSGSGYGTDFTLTINNIESEDAAYYFCQQHDESPYTFGEGTKVEIKR
modifications: SMCC-DM1 bonded via lysine residues of the antibody (chain and positions not stated); SMCC-DM1 bonded via lysine residues of the antibody (chain and positions not stated); DAR 3.0 to 3.20
IC50, cell viability (CellTiter-Glo, 72 h), A2008 cells [2]: 49 nM
IC50, cell viability (CellTiter-Glo, 72 h), Bt549 cells [2]: 20.2 nM
IC50, cell viability (CellTiter-Glo, 72 h), DOHH2 cells [2]: 78.3 nM
IC50, cell viability (CellTiter-Glo, 72 h), HBL-1 cells [2]: 70.1 nM
IC50, cell viability (CellTiter-Glo, 72 h), HCC1187 cells [2]: 6.2 nM
IC50, cell viability (CellTiter-Glo, 72 h), JHOM1 cells [2]: 24.3 nM
IC50, cell viability (CellTiter-Glo, 72 h), MDA-MB-468 cells [2]: 18.8 nM
IC50, cell viability (CellTiter-Glo, 72 h), SKOvr3 cells [2]: 78.7 nM
IC50, cell viability (CellTiter-Glo, 72 h), TMD-8 cells [2]: 50 nM
IC50, cell viability (CellTiter-Glo, 72 h), TOV112D cells [2]: 34.2 nM

B3: ADC-M (antibody, human IgG1, kappa, V domains shown)
VH: QVQLQESGPGLVKPSQTLSLTCTVSGYAFTAYNIHWVRQAPGQGLEWMGSFDPYDGGSSYNQKFKDRLTISKDTSKNQVVLTMTNMDPVDTATYYCARGWYYFDYWGHGTLVTVSS
VL: DIVMTQTPLSLPVTPGEPASISCRASKSISKYLAWYQQKPGQAPRLLIYSGSTLQSGIPPRFSGSGYGTDFTLTINNIESEDAAYYFCQQHDESPYTFGEGTKVEIKR
modifications: MAL-Phe-C4-VC-PAB-MMAE bonded via cysteine residues of the antibody (chain and positions not stated)
notes: Antibody-drug conjugate of Ab1; also called Ab1-MAL-Phe-C4-VC-PAB-MMAE
Kd [3]: 0.12 nM

B4: ADC-F (antibody, human IgG1, kappa, V domains shown)
VH: QVQLQESGPGLVKPSQTLSLTCTVSGYAFTAYNIHWVRQAPGQGLEWMGSFDPYDGGSSYNQKFKDRLTISKDTSKNQVVLTMTNMDPVDTATYYCARGWYYFDYWGHGTLVTVSS
VL: DIVMTQTPLSLPVTPGEPASISCRASKSISKYLAWYQQKPGQAPRLLIYSGSTLQSGIPPRFSGSGYGTDFTLTINNIESEDAAYYFCQQHDESPYTFGEGTKVEIKR
modifications: SC-VC-PAB-DM1 bonded via lysine residues of the antibody (chain and positions not stated)
IC50, cell viability (CellTiter-Glo, 72 h), A2008 cells [2]: > 1000 nM
IC50, cell viability (CellTiter-Glo, 72 h), Bt549 cells [2]: > 1000 nM
IC50, cell viability (CellTiter-Glo, 72 h), DOHH2 cells [2]: > 1000 nM
IC50, cell viability (CellTiter-Glo, 72 h), HBL-1 cells [2]: > 1000 nM
IC50, cell viability (CellTiter-Glo, 72 h), HCC1187 cells [2]: > 1000 nM
IC50, cell viability (CellTiter-Glo, 72 h), JHOM1 cells [2]: > 1000 nM
IC50, cell viability (CellTiter-Glo, 72 h), MDA-MB-468 cells [2]: > 1000 nM
IC50, cell viability (CellTiter-Glo, 72 h), SKOvr3 cells [2]: > 1000 nM
IC50, cell viability (CellTiter-Glo, 72 h), TMD-8 cells [2]: > 1000 nM
IC50, cell viability (CellTiter-Glo, 72 h), TOV112D cells [2]: > 1000 nM

B5: ADC-L (antibody, human IgG1, kappa, V domains shown)
VH: QVQLQESGPGLVKPSQTLSLTCTVSGYAFTAYNIHWVRQAPGQGLEWMGSFDPYDGGSSYNQKFKDRLTISKDTSKNQVVLTMTNMDPVDTATYYCARGWYYFDYWGHGTLVTVSS
VL: DIVMTQTPLSLPVTPGEPASISCRASKSISKYLAWYQQKPGQAPRLLIYSGSTLQSGIPPRFSGSGYGTDFTLTINNIESEDAAYYFCQQHDESPYTFGEGTKVEIKR
modifications: MAL-DPR-VC-PAB-MMAE bonded via cysteine residues of the antibody (chain and positions not stated)
notes: Antibody-drug conjugate of Ab1; also called Ab1-MAL-DPR-VC-PAB-MMAE
Kd [4]: 0.15 nM

B6: ADC-C (antibody, human IgG1, kappa, V domains shown)
VH: QVQLQESGPGLVKPSQTLSLTCTVSGYAFTAYNIHWVRQAPGQGLEWMGSFDPYDGGSSYNQKFKDRLTISKDTSKNQVVLTMTNMDPVDTATYYCARGWYYFDYWGHGTLVTVSS
VL: DIVMTQTPLSLPVTPGEPASISCRASKSISKYLAWYQQKPGQAPRLLIYSGSTLQSGIPPRFSGSGYGTDFTLTINNIESEDAAYYFCQQHDESPYTFGEGTKVEIKR
modifications: MAL-VC-PAB-DM1 bonded via cysteine residues of the antibody (chain and positions not stated)
IC50, cell viability (CellTiter-Glo, 72 h), A2008 cells [2]: > 1000 nM
IC50, cell viability (CellTiter-Glo, 72 h), Bt549 cells [2]: > 1000 nM
IC50, cell viability (CellTiter-Glo, 72 h), DOHH2 cells [2]: > 1000 nM
IC50, cell viability (CellTiter-Glo, 72 h), HBL-1 cells [2]: > 1000 nM
IC50, cell viability (CellTiter-Glo, 72 h), HCC1187 cells [2]: > 1000 nM
IC50, cell viability (CellTiter-Glo, 72 h), JHOM1 cells [2]: > 1000 nM
IC50, cell viability (CellTiter-Glo, 72 h), MDA-MB-468 cells [2]: > 1000 nM
IC50, cell viability (CellTiter-Glo, 72 h), SKOvr3 cells [2]: > 1000 nM
IC50, cell viability (CellTiter-Glo, 72 h), TMD-8 cells [2]: > 1000 nM
IC50, cell viability (CellTiter-Glo, 72 h), TOV112D cells [2]: > 1000 nM

B7: D10 (antibody, V domains shown)
VH: QVQLKESGPGLVAPSQTLSITCTVSGFSLTSYGVHWVRQPPGKGLEWLGVIWAGGFTNYNSALKSRLSISKDNSKSQVLLKMTSLQTDDTAMYYCARRGSSYSMDYWGQGTSVIVSS
VL: EIVLSQSPAITAASLGQKVTITCSASSNVSYIHWYQQRSGTSPRPWIYEISKLASGVPVRFSGSGSGTSYSLTISSMEAEDAAIYYCQQWNYPLITFGSGTKLEIQ
notes: also called antibody D10
EC50 [5]: 0.25 µg/mL

B8: ADC-S (antibody, V domains shown)
VH: QVQLKESGPGLVAPSQTLSITCTVSGFSLTSYGVHWVRQPPGKGLEWLGVIWAGGFTNYNSALKSRLSISKDNSKSQVLLKMTSLQTDDTAMYYCARRGSSYSMDYWGQGTSVIVSS
VL: EIVLSQSPAITAASLGQKVTITCSASSNVSYIHWYQQRSGTSPRPWIYEISKLASGVPVRFSGSGSGTSYSLTISSMEAEDAAIYYCQQWNYPLITFGSGTKLEIQ
modifications: MAL-VC-PAB-MMAE bonded via cysteine residues of the antibody (positions not stated)
notes: Antibody-drug conjugate of D10; also called D10-MAL-VC-PAB-MMAE
EC50 [5]: 0.15 µg/mL
